# In paper PMC3674325:
# Columns and labels:
# [1] = target: T1, APOBEC3A (A3A) wild-type (Homo sapiens, UniProt P31941 1-199); test: NMR titration
# [2] = target: APOBEC3A E72Q (Homo sapiens, UniProt P31941 1-199, E72Q); test: NMR titration
# [3] = target: T1, APOBEC3A (A3A) wild-type; test: EMSA
# [4] = target: T1, APOBEC3A (A3A) wild-type; test: NMR titration; remark: listed apart in the source
# T1 sequence (P31941 whole entry): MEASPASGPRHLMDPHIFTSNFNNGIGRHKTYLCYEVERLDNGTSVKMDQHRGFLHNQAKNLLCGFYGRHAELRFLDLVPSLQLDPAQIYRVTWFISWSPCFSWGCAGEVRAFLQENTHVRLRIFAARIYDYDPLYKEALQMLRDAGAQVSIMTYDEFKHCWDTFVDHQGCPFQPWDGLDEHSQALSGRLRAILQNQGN
# APOBEC3A E72Q, sequence (P31941 whole entry E72Q): as the sequence (P31941 whole entry) above, with E72Q counted along it
binder,measurement,setting,value
"AAACCAAAA (ssDNA, C deaminated to dU during titration) [AAACCAAAA (value is for dU-containing product)]",Kd,[1],94 ± 11 µM
"AAACAAAAA (ssDNA, C deaminated to dU during titration) [AAACAAAAA (value is for dU-containing product)]",Kd,[1],161 ± 19 µM
ATTATTTCATTTATT (ssDNA) [ATTATTTCATTTATT (15-nt substrate)],Kd,[2],55 ± 11 µM
AUUAUUAUUAUUAUUAUUAUUUCAUUUAUUUAUUUAUUUA (ssRNA) [40-nt ssRNA JL931],apparent K (half saturation),[3],~40 µM
"ATTATTTUATTTATT (ssDNA, dU at position 8) [ATTATTTUATTTATT (15-nt product)]",Kd,[4],57 ± 11 µM
"TCATTT (ssDNA, C at position 2 converted to dU during titration) [TCATTT (6-nt; value is for dU product)]",Kd,[1],194 ± 18 µM
"AAACCCAAA (ssDNA, C deaminated to dU during titration) [AAACCCAAA (value is for dU-containing product)]",Kd,[1],91 ± 15 µM
"ATTTUATTT (ssDNA, dU at position 5) [ATTTUATTT (9-nt product)]",Kd,[4],58 ± 8 µM
ATTATTATTATTATTATTATTTCATTTATTTATTTATTTA (ssDNA) [40-nt ssDNA JL895],Kd,[3],~80 µM
